From patent US20240240147A1

Biological target: human B cell antigen CD19 on human B-ALL cells (human) (UniProt P15391)
Experiment: cell-based or functional assay

Substance: CarP-RFP (control CarP: extracellular αCD19 scFv, CD8 transmembrane domain, RFP, no cytoplasmic signaling domain) (from UniProt P01732 138-206)
- percent of CarP-RFP macrophages (from GMPs expanded in modified SCF/2i) that engulfed GFP-labeled human B-ALL cells within 1 hour of co-culture; control CAR without signaling domain: 0.87%
- percent of macrophages (from mouse SCF/2i GMPs) that phagocytized GFP-labeled human B-ALL cells within 1 hour of co-culture; control CAR without signaling domain: 0.21%

Substance: CarP^Fc19-RFP (αCD19 scFv, human CD8 hinge/transmembrane, mouse Fcer1g aa19-86, mouse CD19 aa491-535, P2A-RFP) (from UniProt P01732 138-206; P20491 19-86; P25918 491-535)
- percent of macrophages (from mouse SCF/2i GMPs) that engulfed GFP-positive human B-ALL cells within 1 hour of co-culture: 5.23%

Substance: αCD19 CarP^zFc19-RFP (αCD19 scFv, human CD8 hinge/transmembrane, mouse CD3ζ aa52-164, mouse Fcer1g aa45-86, mouse CD19, P2A-RFP) (from UniProt P01732 138-206; P24161 52-164; P20491 45-86; P25918 491-535)
- percent of macrophages (from mouse SCF/2i GMPs) that engulfed human B-ALL leukemia cells within 1 hour of co-culture, by flow cytometry: 41.6%

Substance: human CarPzFc19-RFP (αCD19 scFv, human CD8 hinge/transmembrane, human CD3ζ aa52-164, human Fcer1g aa45-86, human CD19 aa498-544) (from UniProt P01732 138-206; P20963 52-164; P30273 45-86; P15391 498-544)
- percent of macrophages (from GMPs expanded in modified SCF/2i) that engulfed GFP-labeled human B-ALL leukemia cells within 1 hour of co-culture, by flow cytometry: 28.6%
